According to publication PMC4374754:

Columns and labels:
[1] = target: RecA D112R N113R, fluorescein-labelled (E. coli); test: fluorescence polarisation; 20 nM fluorescein-labelled RecA titrated with pol V in solution, no ssDNA (inactive complex); pol V standard reaction buffer (20 mM Tris pH 7.5, 8 mM MgCl2, 5 mM DTT, 0.1 mM EDTA, 25 mM sodium glutamate, 4% glycerol), 25°C; apparent Kd, one-site specific binding
[2] = target: RecA D112R, fluorescein-labelled (E. coli); test: as above

Kd [1]: 250 nM
Kd [2]: 250 nM
primer utilization in the pol V transactivation assay (RecA* on poly dT, hairpin primer-template, 1 h at 37°C) (RecA D112R (E. coli)): 27%
B1: DNA polymerase V (UmuD′2C) (complex)
chain 1: MFALCDVNAFYASCETVFRPDLWGKPVVVLSNNDGCVIARNAEAKALGVKMGDPWFKQKDLFRRCGVVCFSSNYELYADMSNRVMSTLEELSPRVEIYSIDEAFCDLTGVRNCRDLTDFGREIRATVLQRTHLTVGVGIAQTKTLAKLANHAAKKWQRQTGGVVDLSNLERQRKLMSALPVDDVWGIGRRISKKLDAMGIKTVLDLADTDIRFIRKHFNVVLERTVRELRGEPCLQLEEFAPTKQEIICSRSFGERITDYPSMRQAICSYAARAAEKLRSEHQYCRFISTFIKTSPFALNEPYYGNSASVKLLTPTQDSRDIINAATRSLDAIWQAGHRYQKAGVMLGDFFSQGVAQLNLFDDNAPRPGSEQLMTVMDTLNAKEGRGTLYFAGQGIQQQWQMKRAMLSPRYTTRSSDLLRVK
chain 2: GFPSPAADYVEQRIDLNQLLIQHPSATYFVKASGDSMIDGGISDGDLLIVDSAITASHGDIVIAAVDGEFTVKKLQLRPTVQLIPMNSAYSPITISSEDTLDVFGVVIHVVKAMR
